Laboratory results as given in patent US20230087785A1, “Leucine-Rich Repeat Kinase 2 Allosteric Modulators” (VIB VZW, priority 2020, published 2023).

Tests used:
Roc domain = target: T1, Roc domain (Homo sapiens, UniProt Q5S007); assay: Analytical size exclusion chromatography; format: binding; conditions: data not shown
T1 construct: A construct of the Roc domain spanning the residues 1329-1520 was cloned in the pET-28a vector providing an N-terminal His6-tag; His6 (N); made in house; host or cells: E. coli BL21(DE3)
T1 sequence (Q5S007 1329-1520): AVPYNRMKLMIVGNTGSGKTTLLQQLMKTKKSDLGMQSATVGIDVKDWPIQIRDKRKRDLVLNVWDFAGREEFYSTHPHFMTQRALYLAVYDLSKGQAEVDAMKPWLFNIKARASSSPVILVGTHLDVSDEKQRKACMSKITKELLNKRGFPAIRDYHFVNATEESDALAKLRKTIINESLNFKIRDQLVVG

full-length LRRK2 = target: T2, full-length LRRK2 (Homo sapiens, UniProt Q5S007, M2397T/R50H); assay: Microscale thermophoresis (MST) affinity measurement; format: binding; conditions: m-TAMRA-labeled Nb titrated with LRRK2; 500 μM GDP
T2 construct: Full-length human LRRK2 was expressed and purified based on previously developed protocols; SF tag (FLAG-tag + Twin-Strep-tag); made in house; host or cells: HEK 293T
T2 sequence (Q5S007 whole entry R50H/M2397T): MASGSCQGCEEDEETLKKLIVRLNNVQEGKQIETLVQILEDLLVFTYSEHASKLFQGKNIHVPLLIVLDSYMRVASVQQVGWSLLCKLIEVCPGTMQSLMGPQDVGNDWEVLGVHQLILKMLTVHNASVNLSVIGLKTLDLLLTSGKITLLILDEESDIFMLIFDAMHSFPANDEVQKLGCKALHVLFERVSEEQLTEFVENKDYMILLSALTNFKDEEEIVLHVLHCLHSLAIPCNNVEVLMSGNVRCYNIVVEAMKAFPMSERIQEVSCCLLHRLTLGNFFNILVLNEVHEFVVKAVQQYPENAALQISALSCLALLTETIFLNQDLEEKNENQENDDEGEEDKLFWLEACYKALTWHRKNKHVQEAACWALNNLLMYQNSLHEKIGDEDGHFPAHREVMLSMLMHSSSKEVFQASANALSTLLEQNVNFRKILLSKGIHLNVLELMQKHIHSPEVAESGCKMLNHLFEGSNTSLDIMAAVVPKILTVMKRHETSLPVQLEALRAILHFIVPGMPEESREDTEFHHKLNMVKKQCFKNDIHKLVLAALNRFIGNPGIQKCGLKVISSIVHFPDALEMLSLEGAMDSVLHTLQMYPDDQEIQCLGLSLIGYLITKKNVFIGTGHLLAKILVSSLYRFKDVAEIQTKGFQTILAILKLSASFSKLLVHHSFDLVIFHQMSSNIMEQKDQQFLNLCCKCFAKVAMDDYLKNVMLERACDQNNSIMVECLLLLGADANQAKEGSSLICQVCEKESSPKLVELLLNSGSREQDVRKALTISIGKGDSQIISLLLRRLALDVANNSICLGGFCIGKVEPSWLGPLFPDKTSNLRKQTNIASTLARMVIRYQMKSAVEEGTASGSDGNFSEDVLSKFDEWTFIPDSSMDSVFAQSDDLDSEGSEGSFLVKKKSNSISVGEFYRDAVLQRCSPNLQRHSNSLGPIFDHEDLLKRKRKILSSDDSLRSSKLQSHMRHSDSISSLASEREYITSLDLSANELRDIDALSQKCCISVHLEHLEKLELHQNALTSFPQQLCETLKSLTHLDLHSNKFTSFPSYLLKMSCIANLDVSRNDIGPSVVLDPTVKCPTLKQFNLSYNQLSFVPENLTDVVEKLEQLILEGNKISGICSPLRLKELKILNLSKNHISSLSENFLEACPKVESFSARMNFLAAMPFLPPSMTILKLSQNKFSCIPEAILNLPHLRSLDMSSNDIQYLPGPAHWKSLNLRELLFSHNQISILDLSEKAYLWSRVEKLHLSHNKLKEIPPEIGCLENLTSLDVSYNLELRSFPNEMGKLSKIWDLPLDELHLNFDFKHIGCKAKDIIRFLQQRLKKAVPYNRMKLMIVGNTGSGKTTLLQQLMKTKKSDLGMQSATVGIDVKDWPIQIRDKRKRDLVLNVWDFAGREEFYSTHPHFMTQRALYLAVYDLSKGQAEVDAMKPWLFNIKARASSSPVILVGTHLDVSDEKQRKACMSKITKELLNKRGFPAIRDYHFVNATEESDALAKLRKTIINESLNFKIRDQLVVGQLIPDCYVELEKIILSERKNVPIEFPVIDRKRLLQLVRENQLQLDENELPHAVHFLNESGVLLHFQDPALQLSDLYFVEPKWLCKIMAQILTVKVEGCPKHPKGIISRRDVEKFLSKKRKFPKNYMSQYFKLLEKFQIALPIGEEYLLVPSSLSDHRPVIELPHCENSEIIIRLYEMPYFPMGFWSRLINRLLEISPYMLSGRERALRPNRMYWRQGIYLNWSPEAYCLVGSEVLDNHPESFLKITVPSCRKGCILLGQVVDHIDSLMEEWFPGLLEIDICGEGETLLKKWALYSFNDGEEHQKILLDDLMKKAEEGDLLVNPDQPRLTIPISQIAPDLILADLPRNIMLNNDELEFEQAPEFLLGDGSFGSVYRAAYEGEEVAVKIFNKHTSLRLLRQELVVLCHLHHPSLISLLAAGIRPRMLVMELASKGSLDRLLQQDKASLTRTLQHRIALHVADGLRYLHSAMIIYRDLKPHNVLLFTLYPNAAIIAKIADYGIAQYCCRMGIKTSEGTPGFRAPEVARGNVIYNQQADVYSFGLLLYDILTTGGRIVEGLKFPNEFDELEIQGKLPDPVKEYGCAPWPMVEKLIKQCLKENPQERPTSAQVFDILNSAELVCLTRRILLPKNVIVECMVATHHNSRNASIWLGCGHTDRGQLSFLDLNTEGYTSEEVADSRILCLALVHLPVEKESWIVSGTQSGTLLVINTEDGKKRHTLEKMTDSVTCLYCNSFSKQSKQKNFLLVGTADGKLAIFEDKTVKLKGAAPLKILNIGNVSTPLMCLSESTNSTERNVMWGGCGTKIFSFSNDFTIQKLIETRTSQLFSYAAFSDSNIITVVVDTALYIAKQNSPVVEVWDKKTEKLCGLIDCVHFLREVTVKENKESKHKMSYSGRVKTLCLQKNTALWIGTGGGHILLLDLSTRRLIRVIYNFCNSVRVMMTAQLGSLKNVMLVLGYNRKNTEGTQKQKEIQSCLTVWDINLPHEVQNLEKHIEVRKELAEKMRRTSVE
Description: Binding isotherms are shown, obtained by titrating increasing concentrations of LRRK2 to fluorescently (m-TAMRA)-labeled Nbs and measuring the MST signals. Nbs are classified into four functional groups as defined in FIG. 2d with (FIG. 13A) group 1 Nbs, (FIG. 13B) group 2 Nbs, (FIG. 13C) group 3 Nbs, and (FIG. 13D) group 4 Nbs. In panel (FIG. 13E) two negative controls are shown, where LRRK2 was either titrated to free m-TAMRA or to a m-TAMRA-labeled irrelevant Nb. All measurements were performed in presence of 500 μM GDP, except for Nb42 where GTPγS was used. The corresponding equilibrium dissociation constants (Kd±standard error) obtained by fitting with a quadratic binding equation are given (each data point is the average of three independent measurements with the error bars representing the standard deviation; NB=no MST binding signal detectable).
To determine the binding affinity (dissociation constant KD) of the ten Nbs for LRRK2, two methods were used in parallel: microscale thermophoresis (MST) and bio-layer interferometry (BLI). […] For the BLI experiment LRRK2 was first trapped on a streptavidin-coated biosensor using biotinylated Nb40 as trapping agent (except to assess binding of Nb40, where Nb42 was used as trapping agent), after which binding of all Nbs to LRRK2 was determined. […]

B1: Nb42: LRRK2-specific Nanobody, SEQ ID NO: 6 (protein)
VHH: MAQVQLVESGGGLVQAGGSLRLSCAASGDVNYAVGWFRQAPRKEREFVAAINWRGDNTDYTDSVKGRFTISRDNAKNTVYLQMNSLKPEDTAVYYCAAKSAPYWYSDIAPDYWGQGTQVTVSS
modifications: Nanobody CA14259
In the case of B1, the “binding to Roc” value (Roc domain) is reported as “binding to Roc was confirmed”.

B2: Nb23: LRRK2-specific Nanobody, SEQ ID NO: 3 (protein)
VHH: MAQVQLVESGGGLVQAGGSLRLSCAASGRTFSRYTMGWFRQAPGKDREFVARITTSGAVTTYADSAKGRFTISRDNAKNTVYLQMNTLKPEDTAVYYCAAGQGQLSSQSRFVDYWGQGTQVTVSS
modifications: Nanobody CA13612
In the case of B2, the “KD (nM)-MST” value (full-length LRRK2) is reported as “did not generate a change in thermophoresis behavior”.
